{"source": "patent US12162918B2", "about": "“Periostin compounds for the treatment of haematological complications” (Chemotherapeutisches Forschungsinstitut Georg-Speyer-Haus, priority 2018, dated 2024)", "molecules": {"B1": {"name": "periostin: Recombinant mouse periostin (R&D Systems, cat. no. 2955-F2), produced in the Sf21 (baculovirus)-derived insect cell line (protein)", "chain": "NSYYDKVLAHSRIRGRDQGPNVCALQQILGTKKKYFSSCKNWYQGAICGKKTTVLYECCPGYMRMEGMKGCPAVMPIDHVYGTLGIVGATTTQHYSDVSKLREEIEGKGSYTYFAPSNEAWENLDSDIRRGLENNVNVELLNALHSHMVNKRMLTKDLKHGMVIPSMYNNLGLFINHYPNGVVTVNCARVIHGNQIATNGVVHVIDRVLTQIGTSIQDFLEAEDDLSSFRAAAITSDLLESLGRDGHFTLFAPTNEAFEKLPRGVLERIMGDKVASEALMKYHILNTLQCSEAITGGAVFETMEGNTIEIGCEGDSISINGIKMVNKKDIVTKNGVIHLIDEVLIPDSAKQVIELAGKQQTTFTDLVAQLGLASSLKPDGEYTLLAPVNNAFSDDTLSMDQRLLKLILQNHILKVKVGLSDLYNGQILETIGGKQLRVFVYRTAICIENSCMVRGSKQGRNGAIHIFREIIQPAEKSLHDKLRQDKRFSIFLSLLEAADLKDLLTQPGDWTLFAPTNDAFKGMTSEERELLIGDKNALQNIILYHLTPGVYIGKGFEPGVTNILKTTQGSKIYLKGVNETLLVNELKSKESDIMTTNGVIHVVDKLLYPADIPVGNDQLLELLNKLIKYIQIKFVRGSTFKEIPMTVYRPAMTKIQIEGDPDFRLIKEGETVTEVIHGEPVIKKYTKIIDGVPVEITEKQTREERIITGPEIKYTRISTGGGETGETLQKFLQKEVSKVTKFIEGGDGHLFEDEEIKRLLQGDTPAKKIPANKRVQGPRRRSREGRSQ"}}, "key": {"Lin− cells [1]": {"test_system": "Lin− cells", "experiment": "Plating of warfarin-exposed Lin− cells on untreated versus warfarin-treated stroma, with or without MK-2206", "assay_type": "cell-based, mice", "conditions": "MK-2206 5 μM added to cocultures, P=0.02"}, "integrin β3": {"molecular_target": "T1, integrin β3 (Mus musculus, UniProt O54890+P43406)", "T1 construct": "endogenous in cells; host or cells: murine Lin− bone marrow cells cocultured on murine BM stroma cells", "T1 sequence (O54890 26-787)": "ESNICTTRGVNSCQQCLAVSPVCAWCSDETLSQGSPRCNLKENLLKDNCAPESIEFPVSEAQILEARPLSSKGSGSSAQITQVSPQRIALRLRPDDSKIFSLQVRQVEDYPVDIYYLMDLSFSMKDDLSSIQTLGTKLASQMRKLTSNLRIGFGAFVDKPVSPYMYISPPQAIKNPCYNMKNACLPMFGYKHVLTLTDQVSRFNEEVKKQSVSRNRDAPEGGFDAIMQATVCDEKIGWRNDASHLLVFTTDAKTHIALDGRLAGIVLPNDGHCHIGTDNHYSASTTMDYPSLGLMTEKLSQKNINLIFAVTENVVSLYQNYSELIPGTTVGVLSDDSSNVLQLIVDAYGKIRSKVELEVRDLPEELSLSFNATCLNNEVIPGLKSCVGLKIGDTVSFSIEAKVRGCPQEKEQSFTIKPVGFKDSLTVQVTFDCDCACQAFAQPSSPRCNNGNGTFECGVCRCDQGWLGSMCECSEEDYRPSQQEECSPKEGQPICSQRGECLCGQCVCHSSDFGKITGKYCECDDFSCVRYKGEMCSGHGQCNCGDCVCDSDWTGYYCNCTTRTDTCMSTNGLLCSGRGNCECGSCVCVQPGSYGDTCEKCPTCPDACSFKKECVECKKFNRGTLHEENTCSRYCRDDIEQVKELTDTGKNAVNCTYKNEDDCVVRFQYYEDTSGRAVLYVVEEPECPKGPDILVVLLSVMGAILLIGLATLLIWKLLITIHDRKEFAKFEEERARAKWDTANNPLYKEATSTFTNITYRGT", "T1 sequence (P43406 31-885 limits assumed)": "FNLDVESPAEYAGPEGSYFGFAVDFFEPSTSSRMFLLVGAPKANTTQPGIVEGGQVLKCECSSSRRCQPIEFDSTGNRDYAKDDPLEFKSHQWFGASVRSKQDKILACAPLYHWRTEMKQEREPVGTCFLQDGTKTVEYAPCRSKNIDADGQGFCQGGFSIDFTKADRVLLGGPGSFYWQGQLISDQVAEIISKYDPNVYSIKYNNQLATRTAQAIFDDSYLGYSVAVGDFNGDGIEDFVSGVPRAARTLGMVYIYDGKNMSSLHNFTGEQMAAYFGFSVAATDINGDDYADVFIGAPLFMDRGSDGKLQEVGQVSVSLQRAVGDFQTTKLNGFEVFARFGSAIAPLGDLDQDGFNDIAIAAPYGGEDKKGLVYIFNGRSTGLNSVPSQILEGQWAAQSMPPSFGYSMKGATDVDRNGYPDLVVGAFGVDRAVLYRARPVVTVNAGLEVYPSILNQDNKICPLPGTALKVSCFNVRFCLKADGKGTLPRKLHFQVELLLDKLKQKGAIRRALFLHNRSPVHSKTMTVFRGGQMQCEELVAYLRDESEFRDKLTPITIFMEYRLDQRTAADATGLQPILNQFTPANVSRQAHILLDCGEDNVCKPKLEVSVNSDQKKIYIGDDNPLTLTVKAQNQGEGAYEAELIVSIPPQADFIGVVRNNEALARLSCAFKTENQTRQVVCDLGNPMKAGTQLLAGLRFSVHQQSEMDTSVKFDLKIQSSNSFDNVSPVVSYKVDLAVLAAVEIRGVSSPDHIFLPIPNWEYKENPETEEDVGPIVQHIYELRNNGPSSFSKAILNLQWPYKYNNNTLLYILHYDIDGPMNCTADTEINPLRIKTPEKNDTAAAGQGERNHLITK", "T1 sequence (P43406 887-1044 partner limits assumed)": "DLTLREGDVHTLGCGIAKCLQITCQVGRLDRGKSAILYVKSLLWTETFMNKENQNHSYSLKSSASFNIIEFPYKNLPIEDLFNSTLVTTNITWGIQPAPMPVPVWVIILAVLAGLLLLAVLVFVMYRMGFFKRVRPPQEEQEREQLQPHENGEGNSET", "experiment": "Inhibition of integrin β3 by cilengitide, pAKT in Lin− cells cocultured on BM stroma", "assay_type": "cell-based, mice", "conditions": "cilengitide 0.05 μM, coculture on BM stroma cells, P=0.03", "procedure": "(§1) Concentrations of drugs for in vitro use were 2 μM for warfarin, 2 μg/ml for periostin, 5 μM for the AKT inhibitor MK-2206 (Selleck Chemicals, Houston, TX) and cilengitide (Selleck Chemicals, Houston, TX, Cat. No. #S7077) was used at 0.05 μM. Phosphate buffered saline served as the vehicle control.\nThe PE-labelled anti-pAKT antibody (Cell signaling, #5315, Danvers, MA) was used for intracellular flow cytometry after fixation and permeabilization of the cells."}, "patients": {"test_system": "patients", "experiment": "Peripheral blood counts of patients on VKA versus control patients", "assay_type": "in vivo, human", "from_the_text": "For FIGS. 6C-6H: Data of patients on VKA were obtained from the French health care databases. Patients with hematological disease, inflammation or sepsis were excluded. Patients admitted to the hospital for dermatological problems without hematological disease or sepsis acted as controls."}, "wildtype mice": {"test_system": "wildtype mice", "experiment": "Complete blood count and flow cytometry of peripheral blood and bone marrow of treated mice", "assay_type": "in vivo", "conditions": "administration of vitamin K1, P=0.04", "procedure": "(§2) 0.5 mg/kg/d or 0.05 mg/kg/d of warfarin, resuspended in phosphate-buffered saline was administered to mice via subcutaneously implanted osmotic minipumps (ALZET minipumps, Cupertino, CA). The osmotic minipumps were changed after 14 days (if the experiment went beyond 14 days of treatment). Sham operated (skin incision and suture) mice served as controls. Warfarin treatment continued for 10-14 days. In the xenotransplantation experiments the mice were treated with warfarin via the drinking water (or normal drinking water) at a dose of 0.72 mg/100 ml for a total of 3 days a week (Pfeilschifter et al., 2011).\n(§3) 5-fluorouracil was intraperitoneally injected every week at a dose of 75 mg/kg for a total of 4 doses or as a one time dose of 200 mg/kg. Recombinant mouse periostin (R&D Systems, Minneapolis, MN, cat. no. 2955-F2), produced in the Sf21 (baculovirus)-derived insect cell line, was administered intravenously at a dose of 2-4 μg per day and vitamin K was given at a dose of 15 mg/kg by oral gavage for four consecutive days.\nWe assessed the complete blood count of vehicle or warfarin-treated mice using a complete blood count analyzer (Scil Vet ABC, Gurnee, IL). Peripheral blood and bone marrow samples were stained with antibodies for flow cytometry, which was performed on a BD LSR Fortessa (BD Biosciences, Heidelberg, Germany). The lineage antibody cocktail contained antibodies to B220, CD5, Ter119, F4/80 and CD11b. Engraftment of human cells in NSG mice was assessed using anti-human CD45 (BD Biosciences, San José, CA)."}, "HSC": {"test_system": "HSC", "experiment": "Competitive transplantation of bone marrow from periostin- or vitamin K-treated donor mice", "assay_type": "in vivo", "conditions": "for percentage of LKS cells, cell cycle of transplanted LKS cells, number of colonies in methylcellulose: previously treated bone marrow cells compared to vehicle", "procedure": "as §3\nSJL (CD45.1) donor mice were treated with vehicle or warfarin, euthanized and long bones were flushed, followed by RBC lysis (Life Technologies, Darmstadt, Germany). For competitive transplantation 2×10^6 total BM cells from SJL mice were co-transplanted with 1×10^6 CD45.2+ BM competitor cells into lethally irradiated (900 cGy) C57BL/6N (CD45.2+) recipient mice. For serial transplantation 2×10^6 total CD45.1+ BM cells were transplanted into lethally irradiated C57BL/6N recipient mice. Cell engraftment and chimerism were assessed by flow cytometry of peripheral blood leukocytes for CD45.1 and CD45.2 after 4, 8, 12 and 16 weeks post transplantation. In the limiting dilution experiment we treated primary CD45.1+ donor mice with vehicle or warfarin for 14 days and, consequently, transplanted 5×10^5, 12.5×10^4, 6×10^4 and 1.5×10^4 pooled BM cells into 5 CD45.2+ recipients per group adding 5×10^5 CD45.2+ supporter cells. In indicated experiments we transplanted 5,000 or 10,000 sorted CD45.1+ LKS cells from mice treated with vehicle or warfarin plus 1×10^6 CD45.2+ total BM supporter cells into CD45.2+ recipient mice."}, "[2]": {"test_system": "hematopoietic cells from murine bone marrow", "experiment": "In vitro rescue experiment with periostin in stroma/Lin− cocultures", "assay_type": "cell-based", "conditions": "for absolute number of hematopoietic cells in coculture: 2 μg/ml periostin added, warfarin-treated stroma, 5 days, P=0.02", "procedure": "as §1\nTo test the direct effect of warfarin on hematopoietic cells 100,000 Lin− cells were cultured in 2 μM vehicle or warfarin in the absence of stroma cells for a total of 7 days. For the in vitro rescue experiment with periostin stroma cells were grown in warfarin for 14 days, before vehicle or periostin were added."}, "[3]": {"test_system": "LKS cells and myeloid cells", "experiment": "In vivo administration of periostin to mice treated with warfarin", "procedure": "as §2, §3\nFor cell cycle analysis cells were permeabilized and fixed with the cytoperm/cytofix kit (BD Biosciences, San Jose, CA), followed by staining with an antibody to Ki67-PE (Biolegend, San Diego, CA) overnight at 4 C. Consequently, cells were washed and resuspended in PBS with DAPI (1 ng/ml). For detection of apoptosis cells were first stained for surface markers, washed with Annexin V buffer (Life Technologies, Darmstadt, Germany), stained with Annexin V-PE (Life Technologies, Darmstadt, Germany), washed with Annexin V binding buffer, resuspended in PBS with DAPI and analyzed."}, "Lin− cells [4]": {"test_system": "Lin− cells", "experiment": "Adhesion assay of Lin− cells to stroma cells", "assay_type": "cell-based, mice", "conditions": "periostin added, warfarin- and more prominently vehicle-treated conditions, P=0.03", "from_the_text": "In vivo administration of periostin to mice treated with warfarin also ‘rescued’ the number of LKS cells positive for integrin β3, whose binding to its ligand periostin (Gillan et al., 2002) is known to mediate HSC support (P=0.0013; FIG. 5A) (Khurana and Verfaillie, 2013). […] In order to test, whether the periostin/integrin β3-axis mediates the adhesion of HSPC to stroma, the inventors performed an adhesion assay plating untreated Lin− cells on vehicle- or warfarin-treated stroma cells in the presence or absence of periostin. […] Due to the role of pAKT, which lies downstream of integrin β3 (Hynes, 2002), in periostin-mediated cell survival (Bao et al., 2004) the inventors tested the effect of inhibition of integrin β3 by cilengitide on pAKT in Lin− cells after coculture on BM stroma cells. Similar to the reduction of pAKT+ Lin− cells in mice treated with warfarin (FIG. 3A), inhibition of integrin β3 led to a decrease of pAKT in Lin− cells (P=0.03).\nas §1"}}, "note": "Entries after “also recorded” stand apart in the source; their conditions may differ.", "data": [{"molecule": "NC1(c2ccc(-c3nc4ccn5c(=O)[nH]nc5c4cc3-c3ccccc3)cc2)CCC1", "note": "[MK-2206]", "values": [{"measurement": "temporary recovery of warfarin-exposed Lin− cells on untreated stroma", "setting": "Lin− cells [1]", "result": "prevented"}]}, {"molecule": "CC(C)[C@H]1C(=O)N[C@@H](CCCN=C(N)N)C(=O)NCC(=O)N[C@@H](CC(=O)O)C(=O)N[C@H](Cc2ccccc2)C(=O)N1C", "note": "[cilengitide]", "values": [{"measurement": "pAKT in Lin− cells", "setting": "integrin β3", "result": "decrease"}]}, {"molecule": "O=C1c2ccccc2C(=O)C1c1ccc(F)cc1", "note": "[fluindione]", "values": [{"measurement": "absolute number of leukocytes", "setting": "patients; 282 patients on warfarin (P=0.0007) or 89 on fluindione (P=0.029) vs 145 control patients", "result": "reduced"}, {"measurement": "absolute number of monocytes", "setting": "patients; 282 patients on warfarin (P=0.004) or 89 on fluindione (P=0.046) vs 145 control patients", "result": "reduced"}, {"measurement": "platelets", "setting": "patients; warfarin- or fluindione-treated patients", "result": "not reduced"}]}, {"molecule": "CC1=C(C/C=C(\\C)CCC[C@H](C)CCC[C@H](C)CCCC(C)C)C(=O)c2ccccc2C1=O", "note": "[vitamin K1]", "values": [{"measurement": "decreased percentage of myeloid cells in previously warfarin-treated mice", "setting": "wildtype mice", "result": "rescued"}, {"measurement": "percentage of LKS cells, cell cycle of transplanted LKS cells, number of colonies in methylcellulose", "setting": "HSC", "result": "did not lead to an increase"}, {"measurement": "engraftment of donor cells", "setting": "HSC; treatment of donor mice with vitamin K prior to competitive transplantation", "result": "did not lead to increased engraftment"}]}, {"molecule": "B1", "values": [{"measurement": "absolute number of hematopoietic cells in coculture", "setting": "[2]", "result": "increase of the number of hematopoietic cells"}, {"measurement": "absolute number of hematopoietic cells in coculture", "setting": "[2]; listed as recombinant periostin", "result": "restored"}, {"measurement": "percentage of LKS cells in warfarin-treated cultures", "setting": "[2]; periostin added, P=0.056", "result": "strong trend towards restoration"}, {"measurement": "engraftment of CD45.1+ bone marrow (ratio CD45.1/CD45.2)", "setting": "HSC; donor treated for four days, four weeks after transplantation, P=0.02", "result": "increased engraftment"}, {"measurement": "engraftment of CD45.1+ bone marrow", "setting": "HSC; later time points (data not shown)", "result": "not at later time points"}, {"measurement": "percentage of LKS cells, cell cycle of transplanted LKS cells, number of colonies in methylcellulose", "setting": "HSC", "result": "did not lead to an increase"}, {"measurement": "annexin V+ apoptotic LKS cells", "setting": "[3]; periostin and warfarin (or vehicle) vs warfarin (or vehicle) alone, P=0.02", "result": "significantly reduced"}, {"measurement": "median fluorescence intensity of integrin β3 on LKS cells", "setting": "[3]; periostin to warfarin-treated mice", "result": "remained unchanged"}, {"measurement": "percentage of myeloid cells in peripheral blood", "setting": "[3]; periostin to warfarin-treated mice, 4 day treatment, P=0.007", "result": "rescued; also recorded: increase of the percentage of myeloid cells"}, {"measurement": "number of LKS cells positive for integrin β3", "setting": "[3]; periostin to warfarin-treated mice, P=0.0013", "result": "rescued"}, {"measurement": "adhesion of Lin− cells to stroma", "setting": "Lin− cells [4]", "result": "restored or augmented"}]}]}
